Results reported in the supplement of paper PMC5998384.

Key:
[1] = tested on: HeLa Kyoto; experiment: thermal stability score vs G1/S (z-score of summed log2 fold changes over temperatures); higher = more thermally stable than in G1/S
[2] = tested on: HeLa Kyoto; experiment: solubility change mitosis vs G1/S (difference of NP-40 vs SDS log2 ratios) (log2 ratio difference); higher = more soluble in mitosis
[3] = tested on: HeLa Kyoto; experiment: solubility in G1/S (NP-40 vs SDS abundance) (log2 ratio); higher = more soluble; details: cell cycle stage: G1/S
[4] = tested on: HeLa Kyoto; experiment: melting temperature (median over replicates), in situ; higher = more thermally stable
[5] = cell cycle stage: early G1 (4.5 h after nocodazole release)
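Wherever melting temperature (median over replicates), in situ is given: HeLa Kyoto cells synchronized by double thymidine or nocodazole block, proteins quantified by TMT10plex mass spectrometry, three independent biological replicates.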
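Wherever solubility change mitosis vs G1/S (difference of NP-40 vs SDS log2 ratios) is given: synchronized HeLa Kyoto cells (double thymidine block for G1/S, nocodazole release for mitosis), protein amounts in NP-40 versus SDS lysates quantified by mass spectrometry, three biological replicates.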
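Wherever solubility in G1/S (NP-40 vs SDS abundance) is given: HeLa Kyoto cells arrested at G1/S by double thymidine block, proteins quantified by TMT10plex mass spectrometry in mild NP-40 versus SDS extracts, three biological replicates.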
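Wherever thermal stability score vs G1/S (z-score of summed log2 fold changes over temperatures) is given: synchronized HeLa Kyoto cells, proteins quantified by TMT10plex mass spectrometry, three biological replicates, mitosis taken 0.5 h after nocodazole release, G1/S directly after double thymidine block.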

Sequence | thermal stability score [1, 5] | thermal stability score ([1]; cell cycle stage: mitosis) | solubility change mitosis (log2) [2] | solubility in G1/S (log2) [3] | melting temperature ([4]; cell cycle stage: G1/S) | melting temperature ([4]; cell cycle stage: mitosis)
MSRLGALGGARAGLGLLLGTAAGLGFLCLLYSQRWKRTQRHGRSQSLPNSLDYTQTSDPGRHVMLLRAVPGGAGDASVLPSLPREGQEKVLDRLDFVLTSLVALRREVEELRSSLRGLAGEIVGEVRCHMEENQRVARRRRFPFVRERSDSTGSSSVYFTASSGATFTDAESEGGYTTANAESDNERDSDKESEDGEDEVSCETVKMGRKDSLDLEEEAASGASSALEAGGSSGLEDVLPLLQQADELHRGDEQGKREGFQLLLNNKLVYGSRQDFLWRLARAYSDMCELTEEVSEKKSYALDGKEEAEAALEKGDESADCHLWYAVLCGQLAEHESIQRRIQSGFSFKEHVDKAIALQPENPMAHFLLGRWCYQVSHLSWLEKKTATALLESPLSATVEDALQSFLKAEELQPGFSKAGRVYISKCYRELGKNSEARWWMKLALELPDVTKEDLAIQKDLEELEVILRD [RMDN3] | 0.252 | -0.0237 | -0.102 | -0.0304 | 51.1 °C | 50.8 °C
MSRLKRIAGQDLRAGFKAGGRDCGTSVPQGLLKAARKSGQLNLSGRNLSEVPQCVWRINVDIPEEANQNLSFGATERWWEQTDLTKLIISNNKLQSLTDDLRLLPALTVLDIHDNQLTSLPSAIRELENLQKLNVSHNKLKILPEEITNLRNLKCLYLQHNELTCISEGFEQLSNLEDLDLSNNHLTTVPASFSSLSSLVRLNLSSNELKSLPAEINRMKRLKHLDCNSNLLETIPPELAGMESLELLYLRRNKLRFLPEFPSCSLLKELHVGENQIEMLEAEHLKHLNSILVLDLRDNKLKSVPDEIILLRSLERLDLSNNDISSLPYSLGNLHLKFLALEGNPLRTIRREIISKGTQEVLKYLRSKIKDDGPSQSESATETAMTLPSESRVNIHAIITLKILDYSDKQATLIPDEVFDAVKSNIVTSINFSKNQLCEIPKRMVELKEMVSDVDLSFNKLSFISLELCVLQKLTFLDLRNNFLNSLPEEMESLVRLQTINLSFNRFKMLPEVLYRIFTLETILISNNQVGSVDPQKMKMMENLTTLDLQNNDLLQIPPELGNCVNLRTLLLDGNPFRVPRAAILMKGTAAILEYLRDRIPT [LRRC40] | 0.285 | 1.77 | -0.167 | 0.322 | 49.2 °C | 49.2 °C
MSRLLWRKVAGATVGPGPVPAPGRWVSSSVPASDPSDGQRRRQQQQQQQQQQQQQPQQPQVLSSEGGQLRHNPLDIQMLSRGLHEQIFGQGGEMPGEAAVRRSVEHLQKHGLWGQPAVPLPDVELRLPPLYGDNLDQHFRLLAQKQSLPYLEAANLLLQAQLPPKPPAWAWAEGWTRYGPEGEAVPVAIPEERALVFDVEVCLAEGTCPTLAVAISPSAWYSWCSQRLVEERYSWTSQLSPADLIPLEVPTGASSPTQRDWQEQLVVGHNVSFDRAHIREQYLIQGSRMRFLDTMSMHMAISGLSSFQRSLWIAAKQGKHKVQPPTKQGQKSQRKARRGPAISSWDWLDISSVNSLAEVHRLYVGGPPLEKEPRELFVKGTMKDIRENFQDLMQYCAQDVWATHEVFQQQLPLFLERCPHPVTLAGMLEMGVSYLPVNQNWERYLAEAQGTYEELQREMKKSLMDLANDACQLLSGERYKEDPWLWDLEWDLQEFKQKKAKKVKKEPATASKLPIEGAGAPGDPMDQEDLGPCSEEEEFQQDVMARACLQKLKGTTELLPKRPQHLPGHPGWYRKLCPRLDDPAWTPGPSLLSLQMRVTPKLMALTWDGFPLHYSERHGWGYLVPGRRDNLAKLPTGTTLESAGVVCPYRAIESLYRKHCLEQGKQQLMPQEAGLAEEFLLTDNSAIWQTVEELDYLEVEAEAKMENLRAAVPGQPLALTARGGPKDTQPSYHHGNGPYNDVDIPGCWFFKLPHKDGNSCNVGSPFAKDFLPKMEDGTLQAGPGGASGPRALEINKMISFWRNAHKRISSQMVVWLPRSALPRAVIRHPDYDEEGLYGAILPQVVTAGTITRRAVEPTWLTASNARPDRVGSELKAMVQAPPGYTLVGADVDSQELWIAAVLGDAHFAGMHGCTAFGWMTLQGRKSRGTDLHSKTATTVGISREHAKIFNYGRIYGAGQPFAERLLMQFNHRLTQQEAAEKAQQMYAATKGLRWYRLSDEGEWLVRELNLPVDRTEGGWISLQDLRKVQRETARKSQWKKWEVVAERAWKGGTESEMFNKLESIATSDIPRTPVLGCCISRALEPSAVQEEFMTSRVNWVVQSSAVDYLHLMLVAMKWLFEEFAIDGRFCISIHDEVRYLVREEDRYRAALALQITNLLTRCMFAYKLGLNDLPQSVAFFSAVDIDRCLRKEVTMDCKTPSNPTGMERRYGIPQGEALDIYQIIELTKGSLEKRSQPGP [POLG] | 0.521 | 0.308 | -0.0443 | 0.0107 | 50.3 °C | 50.6 °C
MSRPPPTGKMPGAPETAPGDGAGASRQRKLEALIRDPRSPINVESLLDGLNSLVLDLDFPALRKNKNIDNFLNRYEKIVKKIRGLQMKAEDYDVVKVIGRGAFGEVQLVRHKASQKVYAMKLLSKFEMIKRSDSAFFWEERDIMAFANSPWVVQLFYAFQDDRYLYMVMEYMPGGDLVNLMSNYDVPEKWAKFYTAEVVLALDAIHSMGLIHRDVKPDNMLLDKHGHLKLADFGTCMKMDETGMVHCDTAVGTPDYISPEVLKSQGGDGFYGRECDWWSVGVFLYEMLVGDTPFYADSLVGTYSKIMDHKNSLCFPEDAEISKHAKNLICAFLTDREVRLGRNGVEEIRQHPFFKNDQWHWDNIRETAAPVVPELSSDIDSSNFDDIEDDKGDVETFPIPKAFVGNQLPFIGFTYYRENLLLSDSPSCRETDSIQSRKNEESQEIQKKLYTLEEHLSNEMQAKEELEQKCKSVNTRLEKTAKELEEEITLRKSVESALRQLEREKALLQHKNAEYQRKADHEADKKRNLENDVNSLKDQLEDLKKRNQNSQISTEKVNQLQRQLDETNALLRTESDTAARLRKTQAESSKQIQQLESNNRDLQDKNCLLETAKLKLEKEFINLQSALESERRDRTHGSEIINDLQGRICGLEEDLKNGKILLAKVELEKRQLQERFTDLEKEKSNMEIDMTYQLKVIQQSLEQEEAEHKATKARLADKNKIYESIEEAKSEAMKEMEKKLLEERTLKQKVENLLLEAEKRCSLLDCDLKQSQQKINELLKQKDVLNEDVRNLTLKIEQETQKRCLTQNDLKMQTQQVNTLKMSEKQLKQENNHLMEMKMNLEKQNAELRKERQDADGQMKELQDQLEAEQYFSTLYKTQVRELKEECEEKTKLGKELQQKKQELQDERDSLAAQLEITLTKADSEQLARSIAEEQYSDLEKEKIMKELEIKEMMARHKQELTEKDATIASLEETNRTLTSDVANLANEKEELNNKLKDVQEQLSRLKDEEISAAAIKAQFEKQLLTERTLKTQAVNKLAEIMNRKEPVKRGNDTDVRRKEKENRKLHMELKSEREKLTQQMIKYQKELNEMQAQIAEESQIRIELQMTLDSKDSDIEQLRSQLQALHIGLDSSSIGSGPGDAEADDGFPESRLEGWLSLPVRNNTKKFGWVKKYVIVSSKKILFYDSEQDKEQSNPYMVLDIDKLFHVRPVTQTDVYRADAKEIPRIFQILYANEGESKKEQEFPVEPVGEKSNYICHKGHEFIPTLYHFPTNCEACMKPLWHMFKPPPALECRRCHIKCHKDHMDKKEEIIAPCKVYYDISTAKNLLLLANSTEEQQKWVSRLVKKIPKKPPAPDPFARSSPRTSMKIQQNQSIRRPSRQLAPNKPS [ROCK2] | 0.406 | 1.46 | -0.132 | 0.0267 | 49.8 °C | 49.4 °C
MSRRSQRLTRYSQGDDDGSSSSGGSSVAGSQSTLFKDSPLRTLKRKSSNMKRLSPAPQLGPSSDAHTSYYSESLVHESWFPPRSSLEELHGDANWGEDLRVRRRRGTGGSESSRASGLVGRKATEDFLGSSSGYSSEDDYVGYSDVDQQSSSSRLRSAVSRAGSLLWMVATSPGRLFRLLYWWAGTTWYRLTTAASLLDVFVLTRRFSSLKTFLWFLLPLLLLTCLTYGAWYFYPYGLQTFHPALVSWWAAKDSRRPDEGWEARDSSPHFQAEQRVMSRVHSLERRLEALAAEFSSNWQKEAMRLERLELRQGAPGQGGGGGLSHEDTLALLEGLVSRREAALKEDFRRETAARIQEELSALRAEHQQDSEDLFKKIVRASQESEARIQQLKSEWQSMTQESFQESSVKELRRLEDQLAGLQQELAALALKQSSVAEEVGLLPQQIQAVRDDVESQFPAWISQFLARGGGGRVGLLQREEMQAQLRELESKILTHVAEMQGKSAREAAASLSLTLQKEGVIGVTEEQVHHIVKQALQRYSEDRIGLADYALESGGASVISTRCSETYETKTALLSLFGIPLWYHSQSPRVILQPDVHPGNCWAFQGPQGFAVVRLSARIRPTAVTLEHVPKALSPNSTISSAPKDFAIFGFDEDLQQEGTLLGKFTYDQDGEPIQTFHFQAPTMATYQVVELRILTNWGHPEYTCIYRFRVHGEPAH [SUN2] | -1.84 | -1.17 | 0.229 | -0.141 | 52.4 °C | 55.1 °C
MSRSAAASGGPRRPERHLPPAPCGAPGPPETCRTEPDGAGTMNKLRQSLRRRKPAYVPEASRPHQWQADEDAVRKGTCSFPVRYLGHVEVEESRGMHVCEDAVKKLKAMGRKSVKSVLWVSADGLRVVDDKTKDLLVDQTIEKVSFCAPDRNLDKAFSYICRDGTTRRWICHCFLALKDSGERLSHAVGCAFAACLERKQRREKECGVTAAFDASRTSFAREGSFRLSGGGRPAEREAPDKKKAEAAAAPTVAPGPAQPGHVSPTPATTSPGEKGEAGTPVAAGTTAAAIPRRHAPLEQLVRQGSFRGFPALSQKNSPFKRQLSLRLNELPSTLQRRTDFQVKGTVPEMEPPGAGDSDSINALCTQISSSFASAGAPAPGPPPATTGTSAWGEPSVPPAAAFQPGHKRTPSEAERWLEEVSQVAKAQQQQQQQQQQQQQQQQQQQQAASVAPVPTMPPALQPFPAPVGPFDAAPAQVAVFLPPPHMQPPFVPAYPGLGYPPMPRVPVVGITPSQMVANAFCSAAQLQPQPATLLGKAGAFPPPAIPSAPGSQARPRPNGAPWPPEPAPAPAPELDPFEAQWAALEGKATVEKPSNPFSGDLQKTFEIEL [NUMBL] | 2.8 | 2.05 | -0.00185 | 0.205 | 51.9 °C | 52.3 °C
MSRSPDAKEDPVECPLCMEPLEIDDINFFPCTCGYQICRFCWHRIRTDENGLCPACRKPYPEDPAVYKPLSQEELQRIKNEKKQKQNERKQKISENRKHLASVRVVQKNLVFVVGLSQRLADPEVLKRPEYFGKFGKIHKVVINNSTSYAGSQGPSASAYVTYIRSEDALRAIQCVNNVVVDGRTLKASLGTTKYCSYFLKNMQCPKPDCMYLHELGDEAASFTKEEMQAGKHQEYEQKLLQELYKLNPNFLQLSTGSVDKNKNKVTPLQRYDTPIDKPSDSLSIGNGDNSQQISNSDTPSPPPGLSKSNPVIPISSSNHSARSPFEGAVTESQSLFSDNFRHPNPIPSGLPPFPSSPQTSSDWPTAPEPQSLFTSETIPVSSSTDWQAAFGFGSSKQPEDDLGFDPFDVTRKALADLIEKELSVQDQPSLSPTSLQNSSSHTTTAKGPGSGFLHPAAATNANSLNSTFSVLPQRFPQFQQHRAVYNSFSFPGQAARYPWMAFPRNSIMHLNHTANPTSNSNFLDLNLPPQHNTGLGGIPVAGEEEVKVSTMPLSTSSHSLQQGQQPTSLHTTVA [CNOT4] | 1.12 | 0.182 | 0.0198 | 0.401 | 52.7 °C | 53 °C
